Test results from paper PMC4621513, “APOBEC3G Interacts with ssDNA by Two Modes: AFM Studies”.

Target: APOBEC3G (A3G) (UniProt Q9HC16 1-384)
Test: AFM force spectroscopy; two binding modes; stronger and more stable complexes than with nonspecific ssDNA; Force spectroscopy probing buffer: 50 mM HEPES, 100 mM NaCl, 5 mM MgCl2, 1 mM DTT (pH and temperature not given); imaging buffer not in the material
Conditions: protein: recombinant; tags: mycHis (C-terminal)

Sequence of APOBEC3G (A3G) (Q9HC16 whole entry): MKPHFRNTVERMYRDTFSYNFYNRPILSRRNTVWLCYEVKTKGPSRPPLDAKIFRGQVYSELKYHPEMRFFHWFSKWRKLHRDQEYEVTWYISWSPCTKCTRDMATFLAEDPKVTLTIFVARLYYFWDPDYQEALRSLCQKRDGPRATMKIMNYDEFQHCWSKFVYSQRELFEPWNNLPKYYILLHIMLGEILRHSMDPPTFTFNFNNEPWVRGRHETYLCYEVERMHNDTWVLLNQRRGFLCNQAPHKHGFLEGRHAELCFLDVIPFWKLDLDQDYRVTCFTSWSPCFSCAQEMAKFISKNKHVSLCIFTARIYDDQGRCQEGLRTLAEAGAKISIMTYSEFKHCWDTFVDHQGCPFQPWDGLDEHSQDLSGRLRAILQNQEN

B1: 69 nt deaminase specific ssDNA (ssDNA)
DNA: TACGTGTAGGAATTATATTAAAGAGAAAGTGAAACCCAAAGAATGAAAACCCAAATGTTAGAATTGTTA
modifications: 5' thiol
**Q.** Does B1 bind?
**A.** binds
